From patent US7345160B2, “Aequorin and obelin mutants with differing wavelengths and bioluminescence” (University of Kentucky Research Foundation, priority 2004, dated 2008)
Substitutions are numbered along the chain they refer to. Where “and” joins values, the source holds several entries; their conditions need not be identical. Equal values may be shown once. Read-outs that look alike come from different tables or passages of the source.

How the values were obtained:
[1] = Emission spectra of obelin and obelin mutants with coelenterazine analogues; format: physicochemical; conditions: all coelenterazine analogues
Source text: Obelin mutants C75S/C51/S, C75S/C67, C158S, C151S, and wild type obelin were purified and multiple spectra taken and averaged (See FIG. 20).

[2] = Emission spectra (emission maximum) of purified aequorin mutants with coelenterazine analogues; format: physicochemical
Source text: In order to detect the inventive aequorin mutants, the use of an instrument capable of detecting flash-type bioluminescence over a wide range of wavelengths is envisaged. For example, a fiber optic sensor collects the bioluminescence signal emitted by the aequorin and transmits it to a grating that directs the beam of light to onto an optical array detector. In one embodiment, the system to acquire the spectra from the flash kinetics of aequorin and obelin luminescence consists of a microtiter plate reader. The optical path of the instrument is replaced with a high collecting efficiency fiber optic bundle. This fiberoptic bundle carries the emitted light into an Oriel Instruments Fixed Imaging Compact Spectrograph, the dispersed light is then fed into an ANDOR cooled CCD detector. See for example the SpectroSystem By Sciencewares, Inc (East Falmouth, Mass.).
Cysteine free aequorin (Mutant S), Y132I Mutant S aequorin, Aeq5 (Mutant S with a cysteine at position 5), and wild type Aequorin were purified and multiple spectra taken and averaged (See FIG. 1). […] Mutant S had emission maximums ranging from 448 nm to 491 nm. Y132I Mutant S has emission maximums ranging from 453 nm to 487 nm. Aequorin 5 had emission maximums ranging from 466 nm to 491 nm. The greatest spread in emission maximum thus far has been between MutS/CTZ i and MutS/CTZ hcp (448 nm, 491 nm, respectively (43 nm range)). […] The greatest spread in emission maxima wavelengths so far with the same coelenterazine is CTZ hcp with Aeq5 (476 nm) and MutS (448 nm) being 28 nm. Also, the maximum spread with the same CTZ's and different aequorins is 19 nm for i, ip, and f.
Mutant S, Mutant S Y132I and Aeq 5 final emission spectrums were the result of the average of three trials. Wild type aequorins final spectrum was the result of two trials. All mutants, except Aeq5, were purified to >95% purity using SDS-PAGE and silver staining. All coelenterazine analogues were diluted to 100 micrograms/ML methanol. Solvent composition, coelenterazine concentration, temperature, and incubation time, were the same for all trials except with N coelenterazine, which required a higher concentration of aequorin than the other coelenterazines to show activity. Concentrations of the different mutants were not identical. Half life determination of Y132I Mut S with coelenterazines i, ip, h, hcp, cp, fcp, f, and native were 23, 0.9, 0.4, 0.2, 0.6, 0.7, 2.6, and 1.2 seconds, respectively.

[3] = in solution at 4° C. for over a month; cited from earlier work
[4] = general statement, cited from earlier work

B1: Wild type obelin: bioluminescent protein from the marine hydroid Obelia longissima; SEQ ID NO: 6 (protein, listed as Obelia longissima)
chain: MSSKYAVKLKTDFDNPRWIKRHKHMFDFLDINGNGKITLDEIVSKASDDICAKLEATPEQTKRHQVCVEAFFRGCGMEYGKEIAFPQFLDGWKQLATSELKKWARNEPTLIREWGDAVFDIFDKDGSGTITLDEWKAYGKISGISPSQEDCEATFRHCDLDNSGDLDVDEMTRQHLGFWYTLDPEADGLYGNGVP
B1 showed an emission maxima [1] of 469 nm.

B2: wild type aequorin: native recombinant aequorin encoded by SEQ ID NO: 1, purchased commercially (Aqualite from Molecular Probes) (protein, listed as Aequorea victoria)
chain: VKLTSDFDNPRWIGRHKHMFNFLDVNHNGKISLDEMVYKASDIVINNLGATPEQAKRHKDAVEAFFGGAGMKYGVETDWPAYIEGWKKLATDELEKYAKNEPTLIRIWGDALFDIVDKDQNGAITLDEWKAYTKAAGIIQSSEDCEETFRVCDIDESGQLDVDEMTRQHLGFWYTMDPACEKLYGGAVP
In the case of B2, the emission maximum ([2]; over all coelenterazine analogues (i, ip, h, hcp, cp, fcp, f, n, native)) is reported as 472 nm, the emission maximum ([2]; over all coelenterazine analogues (i, ip, h, hcp, cp, fcp, f, n, native), listed as Wild type aequorin) is reported as “the same emission maxima for all coelenterazines analogues” and the emission maximum ([2]; over all coelenterazine analogues (i, ip, h, hcp, cp, fcp, f, n, native), listed as native recombinant aequorin) is reported as 472 nm. The “original activity retained on storage” value [3] was 85%, the “emission wavelength of aequorin” value [4] was 469-472 nm and the “emission wavelength of aequorin” value ([4]; listed as aequorin) was 469 nm. For the same molecule, the “emission wavelength of aequorin” value ([4]; listed as recombinant aequorin) was 469 nm.

B3: Mutant S: aequorin mutant where the three cysteine residues are replaced with serine (positions 145, 152, 180); SEQ ID NO: 4 (protein, listed as Aequorea victoria)
chain: B2 chain with C145S, C152S, C180S
For B3, the “spread in emission maximum between CTZ i and CTZ hcp” value ([2]; same protein, CTZ i vs CTZ hcp) was 43 nm, the emission maximum ([2]; with CTZ hcp, listed as MutS) was 491 nm and 448 nm and the emission maximum ([2]; with CTZ i) was 448 nm.
